Residue numbers refer to the chain shown, from its start. Blank lines part the entries; values can stand above or below the binder they belong to.
Legend:
[1] = target: … (SEQ ID NO: 1)-HLA-A*02 complex (soluble, biotinylated) (human); assay: SPR (BIAcore) or BLI (Octet) per Example 3, biotinylated pHLA immobilised, 25 C
[2] = target: … (SEQ ID NO: 1)-HLA-A*02 complex presented on antigen positive cancer cells (human); assay: cell-based or functional assay

B1: ImmTAC molecule comprising a79 (SEQ ID NO: 7) and b64 (SEQ ID NO: 12) (TCR, part only; not given: anti-CD3 scFv, linker, TCR constants, part only)
TCR alpha, part: GDAKTTQPNSMESNEEEPVHLPCNHSTISGTDYIHWYRQLPSQGPEYVIHGLTSNVNNRMASLAIAEDRKSSTLILHRATLRDAAVYYCILILGHSRLGNYIATFGKGTKLSVIP
TCR beta, part: DGGITQSPKYLFRKEGQNVTLSCEQNLNHDAMYWYRQDPGQGLRLIYYSQIMNDEQKGDIAEGYSVSREKKESFPLTVTSAQKNPTAFYLCASSWWTGGSAPIRFGPGTRLTVT
- Kd [1]: 0.138 nM
- t1/2 [1]: 6.38 h
- EC50 (mel624), IFN-γ ELISPOT, activation of redirected T cells [2]: 0.0275 nM

B3: ImmTAC molecule comprising a79 (SEQ ID NO: 7) and b66 (SEQ ID NO: 23) (TCR, part only; not given: anti-CD3 scFv, linker, TCR constants, part only)
TCR alpha, part: B1 TCR alpha, part
TCR beta, part: B1 TCR beta, part with N53G, W95P
- Kd [1]: 0.089 nM
- t1/2 [1]: 9.16 h
- EC50 (mel624), IFN-γ ELISPOT, activation of redirected T cells [2]: 0.0167 nM

B8: ImmTAC molecule comprising a28 (SEQ ID NO: 6) and b75 (SEQ ID NO: 20) (TCR, part only; not given: anti-CD3 scFv, linker, TCR constants, part only)
TCR alpha, part: B1 TCR alpha, part with L98A
TCR beta, part: B1 TCR beta, part with N53G, R104S
- Kd [1]: 0.214 nM
- t1/2 [1]: 5.1 h
- EC50 (mel624), IFN-γ ELISPOT, activation of redirected T cells [2]: 0.0139 nM

B9: ImmTAC molecule comprising a28 (SEQ ID NO: 6) and b58 (SEQ ID NO: 21) (TCR, part only; not given: anti-CD3 scFv, linker, TCR constants, part only)
TCR alpha, part: B1 TCR alpha, part with L98A
TCR beta, part: B1 TCR beta, part with N53G, A101S, R104S
- Kd [1]: 0.079 nM
- t1/2 [1]: 8.9 h
- EC50 (mel624), IFN-γ ELISPOT, activation of redirected T cells [2]: 0.012 nM

B10: ImmTAC molecule comprising a79 (SEQ ID NO: 7) and b63 (SEQ ID NO: 22) (TCR, part only; not given: anti-CD3 scFv, linker, TCR constants, part only)
TCR alpha, part: B1 TCR alpha, part
TCR beta, part: B1 TCR beta, part with M52V, N53G
- Kd [1]: 0.079 nM
- t1/2 [1]: 10.8 h
- EC50 (mel624), IFN-γ ELISPOT, activation of redirected T cells [2]: 0.0229 nM

B12: ImmTAC molecule comprising a28 (SEQ ID NO: 6) and b57 (SEQ ID NO: 10) (TCR, part only; not given: anti-CD3 scFv, linker, TCR constants, part only)
TCR alpha, part: B1 TCR alpha, part with L98A
TCR beta, part: B1 TCR beta, part with N53G, G98S, S100A, A101S, R104S
- Kd [1]: 0.083 nM
- t1/2 [1]: 8.3 h
- EC50 (mel624), IFN-γ ELISPOT, activation of redirected T cells [2]: 0.0134 nM

B13: ImmTAC molecule comprising a79 (SEQ ID NO: 7) and b58 (SEQ ID NO: 21) (TCR, part only; not given: anti-CD3 scFv, linker, TCR constants, part only)
TCR alpha, part: B1 TCR alpha, part
TCR beta, part: B1 TCR beta, part with N53G, A101S, R104S
- Kd [1]: 0.0231 nM
- t1/2 [1]: 28.7 h
- EC50 (mel624), IFN-γ ELISPOT, activation of redirected T cells [2]: 0.0106 nM

B15: ImmTAC molecule comprising a28 (SEQ ID NO: 6) and b74 (SEQ ID NO: 17) (TCR, part only; not given: anti-CD3 scFv, linker, TCR constants, part only)
TCR alpha, part: B1 TCR alpha, part with L98A
TCR beta, part: B1 TCR beta, part with N53G, S100A, A101S
- Kd [1]: 0.182 nM
- t1/2 [1]: 3.7 h
- EC50 (mel624), IFN-γ ELISPOT, activation of redirected T cells [2]: 0.0243 nM

B16: ImmTAC molecule comprising a28 (SEQ ID NO: 6) and b60 (SEQ ID NO: 19) (TCR, part only; not given: anti-CD3 scFv, linker, TCR constants, part only)
TCR alpha, part: B1 TCR alpha, part with L98A
TCR beta, part: B1 TCR beta, part with N53G, S100A, A101S, P102E, R104S
- Kd [1]: 0.261 nM
- t1/2 [1]: 2.8 h
- EC50 (mel624), IFN-γ ELISPOT, activation of redirected T cells [2]: 0.0317 nM

Continued, values first:

- Kd [1]: 0.0577 nM
- t1/2 [1]: 16.9 h
- EC50 (mel624), IFN-γ ELISPOT, activation of redirected T cells [2]: 0.0236 nM
B2: ImmTAC molecule comprising a79 (SEQ ID NO: 7) and b75 (SEQ ID NO: 20) (TCR, part only; not given: anti-CD3 scFv, linker, TCR constants, part only)
TCR alpha, part: B1 TCR alpha, part
TCR beta, part: B1 TCR beta, part with N53G, R104S

- Kd [1]: 0.087 nM
- t1/2 [1]: 14.9 h
- EC50 (mel624), IFN-γ ELISPOT, activation of redirected T cells [2]: 0.0318 nM
B4: ImmTAC molecule comprising a79 (SEQ ID NO: 7) and b71 (SEQ ID NO: 15) (TCR, part only; not given: anti-CD3 scFv, linker, TCR constants, part only)
TCR alpha, part: B1 TCR alpha, part
TCR beta, part: B1 TCR beta, part with N53G, R104Y

- Kd [1]: 0.0118 nM
- t1/2 [1]: 58.3 h
- EC50 (mel624), IFN-γ ELISPOT, activation of redirected T cells [2]: 0.0172 nM
B5: ImmTAC molecule comprising a79 (SEQ ID NO: 7) and b76 (SEQ ID NO: 24) (TCR, part only; not given: anti-CD3 scFv, linker, TCR constants, part only)
TCR alpha, part: B1 TCR alpha, part
TCR beta, part: B1 TCR beta, part with N53G, A101S

- Kd [1]: 0.047 nM
- t1/2 [1]: 12.7 h
- EC50 (mel624), IFN-γ ELISPOT, activation of redirected T cells [2]: 0.0263 nM
B6: ImmTAC molecule comprising a79 (SEQ ID NO: 7) and b67 (SEQ ID NO: 13) (TCR, part only; not given: anti-CD3 scFv, linker, TCR constants, part only)
TCR alpha, part: B1 TCR alpha, part
TCR beta, part: B1 TCR beta, part with N53G, G98S

- Kd [1]: 0.052 nM
- t1/2 [1]: 20.4 h
- EC50 (mel624), IFN-γ ELISPOT, activation of redirected T cells [2]: 0.0398 nM
B7: ImmTAC molecule comprising a79 (SEQ ID NO: 7) and b69 (SEQ ID NO: 14) (TCR, part only; not given: anti-CD3 scFv, linker, TCR constants, part only)
TCR alpha, part: B1 TCR alpha, part
TCR beta, part: B1 TCR beta, part with N53G, P102E

- Kd [1]: 0.0779 nM
- t1/2 [1]: 8.6 h
- EC50 (mel624), IFN-γ ELISPOT, activation of redirected T cells [2]: 0.0138 nM
B11: ImmTAC molecule comprising a79 (SEQ ID NO: 7) and b77 (SEQ ID NO: 18) (TCR, part only; not given: anti-CD3 scFv, linker, TCR constants, part only)
TCR alpha, part: B1 TCR alpha, part
TCR beta, part: B1 TCR beta, part with N53G, S100A

- Kd [1]: 0.17 nM
- t1/2 [1]: 7.31 h
- EC50 (mel624), IFN-γ ELISPOT, activation of redirected T cells [2]: 0.0601 nM
B14: ImmTAC molecule comprising a109 (SEQ ID NO: 8) and b46 (SEQ ID NO: 11) (TCR, part only; not given: anti-CD3 scFv, linker, TCR constants, part only)
TCR alpha, part: B1 TCR alpha, part with I102Q
TCR beta, part: B1 TCR beta, part with N53G

- Kd [1]: 0.132 nM
- t1/2 [1]: 4.6 h
- EC50 (mel624), IFN-γ ELISPOT, activation of redirected T cells [2]: 0.0231 nM
B17: ImmTAC molecule comprising a79 (SEQ ID NO: 7) and b73 (SEQ ID NO: 16) (TCR, part only; not given: anti-CD3 scFv, linker, TCR constants, part only)
TCR alpha, part: B1 TCR alpha, part
TCR beta, part: B1 TCR beta, part with N53G, S100A, R104S
